Reference: paper PMC8887137
pKd: −log10 of the molar value.

Test system: NSP12 (RNA-dependent RNA polymerase) (SARS-CoV-2)
Assay: filter binding
Conditions: 20 mM Tris, 200 mM KCl, room temperature, 1 h; pH not stated

NSP12 eCLIP peak RNA, region 7431-7555 (hairpin)
pKd: 7.77
